Experiment [1] has as its target T1, human PSGL-1 on activated primary human CD4+ T cells (human, UniProt Q14242 42-412).
T1 construct: also called P-selectin glycoprotein ligand-1; SELPLG
T1 sequence: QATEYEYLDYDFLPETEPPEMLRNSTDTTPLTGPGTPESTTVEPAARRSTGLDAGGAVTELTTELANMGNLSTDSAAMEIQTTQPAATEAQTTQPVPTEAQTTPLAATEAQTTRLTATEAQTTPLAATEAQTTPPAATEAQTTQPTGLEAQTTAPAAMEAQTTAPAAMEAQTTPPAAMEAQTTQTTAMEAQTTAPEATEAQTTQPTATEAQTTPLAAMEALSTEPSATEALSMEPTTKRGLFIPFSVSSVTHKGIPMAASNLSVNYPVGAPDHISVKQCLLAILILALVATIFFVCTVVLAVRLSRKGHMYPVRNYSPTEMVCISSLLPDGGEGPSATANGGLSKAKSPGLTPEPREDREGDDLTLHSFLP
Kind of experiment: flow cytometry on activated human CD4+ T cells, mean +/- SEM of 4 donors. The procedure: (§1) Anti-lysozyme IgG4, h15A7 and 15A7H antibody binding affinity to activated CD4+ T cells were determined by plotting antibody concentration versus mean fluorescence index (MFI) for each sample duplicate using XLfit (model: dose response one site, 205). EC50 values were determined for each binding curve.
Using flow cytometry, the binding of 15A7H to activated human CD4+ T-cells was determined.
(§2) EC50 values from 4 donors were used to calculate Mean+/−SEM.
For orientation: In flow cytometry, cells or beads pass a laser one at a time.

The target in experiment [2] is T1, human PSGL-1 on activated primary human …. Kind of experiment: flow cytometry on activated human CD4+ T cells, mean +/- SEM. The protocol:
as §1, §2

Two molecules from US20130251708A1 (ABGENOMICS COOPERATIEF U A, published 2013) can be followed below.

B1: 15A7H (antibody, human IgG4 S228P, kappa)
heavy: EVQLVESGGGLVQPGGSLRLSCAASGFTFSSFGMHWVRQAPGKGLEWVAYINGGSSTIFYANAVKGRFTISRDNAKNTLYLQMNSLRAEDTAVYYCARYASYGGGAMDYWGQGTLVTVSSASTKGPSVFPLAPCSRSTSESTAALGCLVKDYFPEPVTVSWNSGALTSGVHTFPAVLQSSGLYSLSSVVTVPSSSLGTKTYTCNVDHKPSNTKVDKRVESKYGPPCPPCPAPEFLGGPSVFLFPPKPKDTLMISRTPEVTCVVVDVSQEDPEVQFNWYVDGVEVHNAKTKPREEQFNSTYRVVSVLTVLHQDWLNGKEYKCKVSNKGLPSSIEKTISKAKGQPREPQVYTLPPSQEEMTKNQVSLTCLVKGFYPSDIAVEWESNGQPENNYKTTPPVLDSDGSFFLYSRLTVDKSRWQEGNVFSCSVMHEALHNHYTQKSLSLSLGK
light: DIQMTQSPSSLSASVGDRVTITCRSSQSIVHNDGNTYFEWYQQKPGKAPKLLIYKVSNRFSGVPSRFSGSGSGTHFTLTISSLQPEDFATYYCFQGSYVPLTFGQGTKVEIKRTVAAPSVFIFPPSDEQLKSGTASVVCLLNNFYPREAKVQWKVDNALQSGNSQESVTEQDSKDSTYSLSSTLTLSKADYEKHKVYACEVTHQGLSSPVTKSFNRGEC
notes: Humanized IgG4 kappa antibody with the Ser228->Pro228 (EU index) hinge mutation, made in CHO-DG44 cells; also called hinge mutant of h15A7; 15A7H antibody
Molecule B1 displayed an EC50 in experiment [1] of 0.22 nM.

B2: h15A7 (antibody, human IgG4, kappa)
heavy: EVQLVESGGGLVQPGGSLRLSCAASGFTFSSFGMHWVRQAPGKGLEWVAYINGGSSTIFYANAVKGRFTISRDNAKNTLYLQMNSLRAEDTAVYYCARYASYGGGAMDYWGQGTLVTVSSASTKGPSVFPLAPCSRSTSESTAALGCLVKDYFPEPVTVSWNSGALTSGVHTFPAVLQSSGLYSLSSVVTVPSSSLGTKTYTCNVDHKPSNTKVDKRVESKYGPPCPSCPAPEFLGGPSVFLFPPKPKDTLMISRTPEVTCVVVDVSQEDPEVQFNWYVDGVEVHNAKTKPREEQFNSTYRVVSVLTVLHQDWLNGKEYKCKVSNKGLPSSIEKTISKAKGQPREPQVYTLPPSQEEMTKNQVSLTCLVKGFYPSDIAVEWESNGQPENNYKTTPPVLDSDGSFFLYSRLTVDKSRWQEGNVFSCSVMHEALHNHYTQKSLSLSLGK
light: B1 light
notes: Parent IgG4 kappa antibody with the wild-type hinge; also called Antibody h15A7
In experiment [2], B2 yielded an EC50 of 0.27 nM. That is a sub-nanomolar value.

By EC50 is commonly meant the concentration giving half of the maximal effect. Higher therefore signals a less potent agent.
